Changes are numbered by the printed parent chain.

This is an account of results in patent publication US20250215104A1 (WALDEN BIOSCIENCES, published 2025).

To fix the notation:
B1: suPAR_DB04_E02 (scFv, V domains shown)
VH: QVQLVQSGAEVKKPGASVKVSCKASGYTFTSYYMHWVRQAPGQGLEWMGWIDPENGSTIYDQKFQGRVTMTRDTSTSTVYMELSSLRSEDTAVYYCARGYDVDWFVYWGQGTLVTVSS
VL: DIQMTQSPSSLSASVGDRVTITCRARSSVSYMYWYQQKPGKAPKLLIYATSNLASGVPSRFSGSGSGTDFTLTISSLQPEDFATYYCQQYHSYPPTFGGGTKVEIK
notes: scFv clone from phage display
B2: suPAR_DB01_C01 (scFv, V domains shown)
VH: B1 VH with S31G, P53H, S57N
VL: B1 VL with R24S, A49R
notes: screened as scFv
B3: suPAR_DB01_A04 (scFv, V domains shown)
VH: B1 VH with S31G, P53H, S57N
VL: B1 VL with R24S, R26S, S27Q, A49R
notes: screened as scFv
B4: suPAR_DB01_B02 (scFv, V domains shown)
VH: B1 VH with S31N, P53H, S57N
VL: B1 VL with R24S, A49R
notes: screened as scFv
B5: suPAR_DB01_A03 (scFv, V domains shown)
VH: B1 VH with Y32N, M34I, P53H, I59S
VL: B1 VL with R24S, A49R
notes: screened as scFv
B6: suPAR_DB01_A12 (scFv, V domains shown)
VH: B1 VH with S31G, N55G, S57N, D61A
VL: B1 VL with R24S, A49R
notes: screened as scFv
B7: suPAR_DB01_A06 (scFv, V domains shown)
VH: B1 VH with P53H, S57N
VL: B1 VL with S27Q, A49R
notes: screened as scFv
B8: suPAR_DB01_B01 (scFv, V domains shown)
VH: B1 VH with S31D, P53H, S57N
VL: B1 VL with R24S, R26S, S27Q, A49R
notes: screened as scFv
B9: suPAR_DB01_A05 (scFv, V domains shown)
VH: B1 VH with S31G, P53H, S57N
VL: B1 VL with S27Q, A49R
notes: screened as scFv
B10: suPAR_DB01_A11 (scFv, V domains shown)
VH: B1 VH with S31N, P53H, S57N
VL: B1 VL with R24S, R26S, S27Q, A49R
notes: screened as scFv
B11: suPAR_DB01_A07 (scFv, V domains shown)
VH: B1 VH with Y27G, P53H, I59S
VL: B1 VL with R24S, A49R
notes: screened as scFv
B12: suPAR_DB01_A10 (scFv, V domains shown)
VH: B1 VH with T30S, S31N, P53H, S57N
VL: B1 VL with R24S, A49R
notes: screened as scFv
B13: suPAR_DB01_A02 (scFv, V domains shown)
VH: EVQLEESGAELVRPGALVKLSCKASGFNIKDYYIHWVKQRPEQGLEWIGWIDHENGNTIYDPKFQGKASITLDTSSNTAYLQLNSLTSEDTAVYYCARGYDVDWFVYWGQGTLVTVSS
VL: QIVLTQSPAIMSASPGEKVTIYCSARSSVSYMYWYQQKPGSSPKPWIYRTSNLASGVPARFSGSGSGTSYSLTISSMEAEDAATYYCQQYHSYPPTFGGGTKLEIK
notes: screened as scFv
B14: suPAR_DB03_A12 (scFv, V domains shown)
VH: QVQLVQSGAEVKKPGASVKVSCKASGYTFSRYYMHWVRQAPGQGLEWIGWMNPNTGDTGYAQKFQGRVTMTRDTSTSTVYMELSSLRSEDTAVYYCARGYDVDFFVYWGQGTLVTVSS
VL: DIQMTQSPSSLSASVGDRVTITCRASQGISGWLAWYQQKPGKAPKLLIYDASSLQSGVPSRFSGSGSGTDFTLTISSLQPEDFATYYCQQSYSDPLTFGGGTKVEIK
notes: screened as scFv
B15: suPAR_DB06_C05 (scFv, V domains shown)
VH: QVQLVQSGAEVKKPGASVKVSCKASGGTFSSYAISWVRQAPGQGLEWMGVIDPSGGTTDYAQKFQGRVTMTRDTSTSTVYMELSSLRSEDTAVYYCARGYDVDWFVYWGQGTLVTVSS
VL: DIQMTQSPSSLSASVGDRVTITCRTSQSISSFLNWYQQKPGKAPKLLIYDVSHLESGVPSRFSGSGSGTDFTLTISSLQPEDFATYYCQQYHSYPPTFGGGTKVEIK
B16: suPAR_DB06_F02 (scFv, V domains shown)
VH: B1 VH with S31N, P53H, I59S
VL: B1 VL with S27Q, A49R
B17: suPAR_DB06_E01 (scFv, V domains shown)
VH: QVQLVQSGAEVKKPGASVKVSCKASGFNFKDYYIHWVRQAPGQGLEWMGWMDPSSGNTAYAQKFQGRVTMTRDTSTSTVYMELSSLRSEDTAVYYCARGYDVDWFVYWGQGTLVTVSS
VL: B1 VL with R24S, S27Q, V29I, A49R
B18: suPAR_DB06_F12 (scFv, V domains shown)
VH: B1 VH with T30S, S57N, D61A
VL: B1 VL with S27Q, A49R
B19: suPAR_DB06_F09 (scFv, V domains shown)
VH: B1 VH with S31T, N55G, S57N
VL: B1 VL with R24S, R26S, S27Q, A49R
B20: suPAR_DB06_F08 (scFv, V domains shown)
VH: B1 VH with S31G, Y32N, M34V, P53H, E54S, S57N
VL: B1 VL with R24S, A49R
B21: suPAR_DB06_F06 (scFv, V domains shown)
VH: B1 VH with Y27G, T30I, S31G, Y32H, M34V, P53H, S57N
VL: B1 VL with R24S, A49R
B22: suPAR_DB06_F11 (scFv, V domains shown)
VH: B1 VH with S31N, P53H, D61A
VL: B1 VL with R24S, A49R, A54Q
B23: suPAR_DB06_G01 (scFv, V domains shown)
VH: B1 VH with Y27D, S31G, P53H, D61A
VL: B1 VL with R24S, A49R
B24: suPAR_DB06_F05 (scFv, V domains shown)
VH: B1 VH with Y27D, T28S, S31G, M34I, P53H, S57N
VL: B1 VL with R24S, A49R
B25: suPAR_DB06_G06 (scFv, V domains shown)
VH: B1 VH with Y27F, S31A, S57N, D61A
VL: B1 VL with R24S, R26S, S27Q, A49R
B26: suPAR_DB06_G04 (scFv, V domains shown)
VH: B1 VH with S31G, D52N, N55G, I59N, D61E
VL: B1 VL with R24S, S27Y, A49R
B27: suPAR_DB06_F03 (scFv, V domains shown)
VH: B1 VH with T28S, S31N, P53H, S57N, Y100N
VL: B1 VL with R24S, R26S, S27Q, A49R
B28: suPAR_DB06_G02 (scFv, V domains shown)
VH: B1 VH with T28N, F29I, S31D, M34I
VL: B1 VL with A49R
B29: suPAR_DB06_F04 (scFv, V domains shown)
VH: B1 VH with T28R, S57N, D61A
VL: B1 VL with R24S, S27Q, A49R
B30: suPAR_DB06_G03 (scFv, V domains shown)
VH: B1 VH with T30S, N55G, S57N, D61A
VL: B1 VL with R24S, A49R

One experiment deals with T1, human soluble urokinase plasminogen activator receptor (hsuPAR) (human, UniProt Q03405 23-303, limits assumed).
T1 construct: also called human suPAR; rhuPAR-His
Put plainly: off-rate screen of scFv clones (kdis), Octet BLI.
T1 sequence (Q03405 23-303 limits assumed): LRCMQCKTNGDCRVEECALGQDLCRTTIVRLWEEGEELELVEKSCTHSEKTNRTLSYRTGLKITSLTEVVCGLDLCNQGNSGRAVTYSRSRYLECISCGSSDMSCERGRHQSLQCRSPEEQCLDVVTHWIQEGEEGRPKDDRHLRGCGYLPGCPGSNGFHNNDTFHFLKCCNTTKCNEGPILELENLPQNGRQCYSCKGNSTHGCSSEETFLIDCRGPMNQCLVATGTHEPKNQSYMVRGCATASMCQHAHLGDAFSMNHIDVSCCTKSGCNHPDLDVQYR
The koff is the rate constant with which the complex falls apart. A lower koff goes with a long-lived complex. Molecule B1 came in with a koff of 0.00497 s⁻¹.

The target in the next experiment is T2, cynomolgus soluble urokinase plasminogen activator receptor (suPAR) (cynomolgus, UniProt Q9GK78 23-303, limits assumed).
T2 construct: Target antigen of the off-rate screen; also called cynomolgus uPAR; cynomolgus suPAR
Nature of the experiment: off-rate (kdis) screen of scFv clones, biosensor (Octet). In general terms: Biolayer interferometry detects binding as a change in optical thickness at a sensor tip.
Target sequence in this assay (Q9GK78 23-303 limits assumed): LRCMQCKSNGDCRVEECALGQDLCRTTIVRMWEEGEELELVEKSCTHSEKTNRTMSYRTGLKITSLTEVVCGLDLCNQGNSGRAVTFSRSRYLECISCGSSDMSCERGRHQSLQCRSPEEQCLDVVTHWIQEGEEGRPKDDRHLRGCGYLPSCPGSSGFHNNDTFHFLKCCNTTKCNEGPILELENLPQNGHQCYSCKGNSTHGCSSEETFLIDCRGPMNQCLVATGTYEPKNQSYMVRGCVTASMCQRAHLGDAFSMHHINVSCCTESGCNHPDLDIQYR
B2 yielded a koff of 0.000266 s⁻¹.

For B3, the koff worked out at 0.00021 s⁻¹. B4 registered a koff of 0.000177 s⁻¹. Same read-out and setting: in the case of B5 it was 0.000231 s⁻¹; in that of B6, 0.000142 s⁻¹; in that of B7, 4.27e-07 s⁻¹. Regarding B8, the koff was 4.88e-07 s⁻¹. Same read-out and setting: the value for B9 was 0.000326 s⁻¹.

For the molecule B10, the koff stood at 0.000479 s⁻¹. On to B11, for which the koff turned out to be 0.00156 s⁻¹.

B12 yielded a koff of 0.000299 s⁻¹.

The target in a further experiment is T3, human soluble urokinase plasminogen activator receptor (suPAR) (human, UniProt Q03405 23-303, limits assumed).
T3 construct: Target antigen of the off-rate screen; also called hsuPAR; human suPAR
Described as above.
T3 sequence (Q03405 23-303 limits assumed): as the sequence (Q03405 23-303 limits assumed) above
B2 had a koff of 0.00122 s⁻¹. With B3, the koff is 0.000911 s⁻¹.

B4: the koff stood at 0.00142 s⁻¹. In the case of B5, the koff came out at 0.00256 s⁻¹. B6 yielded a koff of 0.00128 s⁻¹. B7: the koff worked out at 0.00253 s⁻¹. B8 registered a koff of 0.0028 s⁻¹. The molecule B9 displayed a koff of 0.00174 s⁻¹.

B10 registered a koff of 0.0015 s⁻¹. B11 had a koff of 0.00571 s⁻¹. For B12, the koff worked out at 0.00194 s⁻¹. In the case of B13, the koff came to 3.54e-07 s⁻¹.

A further experiment addresses T4, human soluble urokinase plasminogen activator receptor (hsuPAR) (human, UniProt Q03405 23-303, limits assumed).
T4 construct: Target antigen of the off-rate screen; also called human suPAR; rhuPAR-His
Put plainly: BLI (Octet) off-rate screen of scFv clones.
T4 sequence (Q03405 23-303 limits assumed): as above
Molecule B14 returned a koff of 0.0544 s⁻¹.

Another experiment has as its target T5, cynomolgus soluble urokinase plasminogen activator receptor (suPAR) (cynomolgus, UniProt Q9GK78 23-303, limits assumed).
T5 construct: Target antigen of the scFv off-rate screen; also called cynomolgus suPAR; cynomolgus uPAR
Put plainly: BLI (Octet) off-rate screen of scFv clones.
Target sequence in this assay (Q9GK78 23-303 limits assumed): as the sequence (Q9GK78 23-303 limits assumed) above
As for B15, the koff is 0.0623 s⁻¹.

Molecule B16 gave a koff of 0.000258 s⁻¹. The same measure, in the same setting: in the case of B17 it was 0.000126 s⁻¹.

As to B18, the koff turned out to be 0.000195 s⁻¹. Molecule B19 came in with a koff of 0.000353 s⁻¹. Consider B20, for which the koff turned out to be 0.000537 s⁻¹. For B21, the koff was 0.00055 s⁻¹. B22 came in with a koff of 0.00059 s⁻¹.

B23: the koff stood at 0.000134 s⁻¹.

For B24, the koff worked out at 3.1e-07 s⁻¹.

The molecule B25 displayed a dissociation rate constant (koff) of 5.28e-07 s⁻¹.

In the case of B26, the koff amounted to 0.000223 s⁻¹. B27 gave a koff of 0.00059 s⁻¹. Molecule B28 displayed a koff of 0.000375 s⁻¹. B29: the koff was found to be 0.000315 s⁻¹.

Molecule B30 displayed a koff of 0.000231 s⁻¹.

A further experiment addresses T6, human soluble urokinase plasminogen activator receptor (suPAR) (human, UniProt Q03405 23-303, limits assumed).
T6 construct: Target antigen of the scFv off-rate screen; also called hsuPAR; human suPAR
Put plainly: BLI (Octet) off-rate screen of scFv clones.
T6 sequence (Q03405 23-303 limits assumed): as the sequence (Q03405 23-303 limits assumed) above
For B15, the koff came out at 0.373 s⁻¹. Molecule B16 displayed a koff of 0.00157 s⁻¹.

Molecule B17 yielded a koff of 0.00483 s⁻¹. For B18, the dissociation rate constant (koff) was 0.00426 s⁻¹. On the same count and under the same terms, the value for B19 was 0.00302 s⁻¹. As to B20, the koff is 0.00174 s⁻¹. In turn, B21 gave a koff of 0.00331 s⁻¹. On the same count and under the same terms, the value for B22 was 0.000947 s⁻¹; that for B23 was 0.00148 s⁻¹; that for B24 was 0.00531 s⁻¹. Consider B25, for which the koff was 0.00431 s⁻¹.

For the molecule B26, the koff is 0.00549 s⁻¹. B27 showed a koff of 0.004 s⁻¹. As for B28, the koff is 0.00384 s⁻¹. For the molecule B29, the koff came out at 0.00574 s⁻¹. In the case of B30, the koff came out at 0.00381 s⁻¹.
